Laboratory results reported in the nanobody polyreactivity screen of Harvey et al. (2022).

Test: yeast display, Sf9 membrane polyspecificity reagent, FACS + sequencing; frameworks hold sequencing errors
Summary of the method: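 Using colony PCR, genes from sorted yeast display clones were amplified, then sequenced on MiSeq at 2 × 250 and filtered by CDR length. The clones had been stained with 10% biotinylated, detergent-solubilized Sf9 membrane reagent for 1 hour at 4 °C and sorted by FACS into low and high (top ~1%) gates on anti-HA and streptavidin fluorescence. Polyreactivity labels come from the gate of origin.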

Sequence | polyreactivity (PSR sort gate)
QVQLVESGGGLVQAGGSLRLSCAASGYTFDTNALGWYRLAPGTEREFVAAISSTGGTYYADSVKGRFTISRDNAKNTVYLQMNSLKPEDTAVYYCAATFIQVVVIVQLYDYDYWRQGTQVTVSS | low polyreactivity
QVQLVESAGGLVQAGGSLRLSCAASGRIFWDYAMGWYRQAPGKERELVATITQNDGSTYYADSVKGRFTISRDNAKNTVYLQMNSLKPEDTAVYYCAAYLLGWFTIKYDYGGQGTQVTVSS | low polyreactivity
QVQLVESGGGLVQAGGSLRLSCAASGSTFFFNAMGWYRQAPGKERELVAGISSSGGSTHYADSVKGRFTISRDNAKNTVYLQMNSLKPEDTAVYYCNAQQYLTFRGTGDYWGQGTQVTVSS | low polyreactivity
QVQLVESGGGLVQAGGSLRLSCAASGYTRFYAMGWYRHAPGKERELVAAISSSGGTTYYADSVKGRLTISRDNAKNTVYLQMNSLKPDDSAVYYCAKYVSYCRTLYEYWGQGTQVTVSS | high polyreactivity
QVQLVESGGGLVQAGGSLRLSCAASGITFYYYTMGWYRQAPGKERELVAGITYRGGRTYYADSVKGRFTISRDNAKNTVYLQMNSLKPEDTAVYYCAADDLGWWFYSGGEDYYYWGQGTQVTVSS | low polyreactivity
QVQLVESGGGLVQAGGSLRLSCAASGSNFTVYDMGWYRQAPGKERELVAAISFSGGSTYYADSVKGRFTISRDTAKNTVYLQMNSLKPVDTAVYYCAADTYTTPYEYWGQGTQVTVSS | low polyreactivity
QVQLVESGGGLVQAGGSLRLSCAASGRIFTGYALGWYRQAPGKERELVAAISRGGSTNYADSVKGRFTISRDNAKNTVYLQMNSLKPEDTAVYYCAAGVHWDRGDYWGQGTQVTVSS | low polyreactivity
QVQLVESGGGLVQAGGSLRLSCAASGSTFVYYAMGWYRQAPGKEREFVAAINGGGRTNYADSVKGRFTISRDNAKNTVYLQMNSLKPEDTAVYDCAADGLSNVRQMDYWGQGTQVTVSS | low polyreactivity
QVQLVESGGGLVQAGGSLRLSCAASGFIFRYYAMGWYRQAPGKERELVAAIRGNSGNTYYADSVKGRFTISRDNAKNTVYLQMNSLKPEDTAVYYCAKPFNIWGQGTQVTVSS | high polyreactivity
QVQHVESGGGLVQAGGSLRLSCAASGSIFAGYANGWYRKAPGKERELVARITDRGGSTDYADSVKGRYTISRDNAKNTVYLQMNSLKPEDTAVYSCAKRGDRYEKRPRDYWGQGTQVTVSS | low polyreactivity
QVQLVESGGGLVQAGGSLRLSCAASGRIYTHYAMGWYRQAPGKERELVAAISYRGGSTYYADSVKGRFTISRDNAKNTVYLQMNRLKPEATAVYYCNKYRFVYSLDDYWGQGIQVTVSS | high polyreactivity
QVQLVESGGGLVQAGGSLRLSSAASGSTFGSYTMGWYRQAPGKERELVAAINWSGGNTYYADSVKGRFTISRDNAKNTVYLQMNSLKPEDPAVYYCAAAFYIYGVEGDYWGQGTQVTVSS | low polyreactivity
QVQLVESGGGLVQAGGSLRISCAASGSIFVHYSMGWYRQAPGKEREFVAAISRGGGTTYYADSVKGRFTISRDNAKNTVYLQMNSLKPEDTAVYYCSARPSTDEGHRQSGLDYWGQGTQVTVSS | high polyreactivity
QVQLVESGGGLVQAGGSLRLSCAASGRTFFQYAMGWYRQAPGKERELVATIRSGGSTYYADSVKGRFTISRDNAKNTVYLQMNSLKPEDTAVYYCATRYTRFRHFDYWGQGTQVTVSS | low polyreactivity
QVQLVESGGGLVQEGASLRLSCAASGSIVGYYAMGWYRQAHGKERELVAAITRYGGRTYYADSVKGRFTISRDNGKNTVYLQMNSLKPEDTAVYYCNAANSRYAYYYWGQGTQVTVSS | high polyreactivity
QVQLVESGGGLVQAGGSLRLSCAASGRTFNYYGMGWYRQAPGKERELVAAINSGDNTYYADSVKGRFTISRDNAKNTVYLQMTSLKPEDTAVYYCNTDAFWYYYSWYDYWGQGTQVTVSS | low polyreactivity

Sequence | polyreactivity (PSR sort gate)
QVQLVESGGGLVEAGGSLRLSCAASGGTFLRYAMGWSIQAPGKERELVAAITYRNGRTYYADSVKGRFTISRDNAKNTVYLQMNSLKPEDTAVYYCAADSTPRGNPAYDYYYWGQGTQVTVSS | high polyreactivity
QVQLDESGGGLVQAGGSLRLSCAASGSTFNIYAMGWYRRAPWQERELVAAITRGGSTNYADSVKGRFTISRDNAKNTVYLQMNSLKPEDTAVYYCAARTAYFTSYGRYYYWGQGTQVTVSS | high polyreactivity
QGQLVESGGGLVQAGGSLRLSCAASGSIYPLNVMGWYRQSPGKERELVATISKSGGSTYYADSVKGRITISRDNAKNTVYLQMNSLKPEDTGVYNCTVGRYVVGGTSVGYWGQGTQVSVSS | low polyreactivity
QVQLVESGGGLVQAGGSLRLSCAASGLIFTWNAMGWYRQAPGKERELVAAISTGGSTSYADSVKGRFTISRDNAKNTVYLQMNSLKPEDTAVYYCARDSSIWSHGSWYDYWGQGTQVTVSS | low polyreactivity
QVQLVESGGALVQAGGSLRLSCAASGLIYSHNAMGWYRQAPGKERELVAAISWRGGRTYYADSVKGRFTISRDNAKNTVYLLMNSLKPEDTAVFYCNKYYGKRYDYLGQGTQVTVSS | high polyreactivity
QVQLVESGGGLVQAGGSLRLSCAASGIIFGGYDMGWYRQAPGKERELVAAISWSGGSTYYADSVKGRFTISRDNAKNTVYLQMNSLKPEDTAVYYCAAAYYAPTRDYHYWGQGTQVTVSS | low polyreactivity
QVQLVESGGGLVQAGGSLRLSCAASGSTIGVYAMGWYRQAPGKERELVAAITSGDSTNYADSVKGRFTISRDNAKNTVYLQMYSLKPEDTAVYYCNARQLYYWYYAYDYWGQGTQVTVST | low polyreactivity
QVQLVESGGGLVQAGGSLRLICAASGSTFQSYAMGWYRQAPGKERELVAAISARGGTTYYADSVKGRFTISRDNAKNTVYLQMNSLKPEDTAVYYCAAVDHSVYSGSPDTGESDYWGQGTQVTVSS | low polyreactivity
QVQLLESGGGLVQAGGSLRLSCAASGSIFTVYAMGWYRQAPGKERELVAAITGSGGRTYYADSVKGRFTISRDNAKNTVYLQRNSLKPEDTAVYYCAATTRPGYRYEGDYWGQGTQVTVSS | low polyreactivity
QVQLVESGGGLVQAGGSLRLSCAASGFTFKKNAMGWYRQAPGKERELVDAISISGGSTYYADSVKGRFTISRDNAKNTVYLQMNSLKPEDTAVYYCAAVYISRNFFGRARGDYWGQGTQVTVSS | low polyreactivity
QVQRVESWGGLVQAGGSLRLSCAASGSIFDVYTMGWYRQAPGKERELVAAINTGGGSTYYADSVKGRFTISRDNAKNTVYFQMNSLKPEDTAVYYCAAQWWWKRPVRYEYWGQGTLVTVSS | low polyreactivity
QVQLVESGGGLVQAGGSLRLSCAASGSTFVGYAMGWYRQAPGKERELVAAISRSGGRTYYADSVKGRFTISRDNAKNTVYLQMNSLKPEDTAVYYCYPYYIASTFDYWGQGTQVTVSS | high polyreactivity
QVQLQESRGGLVQAGGSLRLSCAASGYISLAQTIGWYRQAPGKEREFVASIALGSSTYYTDSVKGSFTISRDNAKTTVYLQMISLQAEDTAVYYCAARVGASYAHDFWGQGTQVTVSS | low polyreactivity
QVQLEESGGGLVQAGGSLRLSCAASGITLAHNAMGWYRQAAGKERELVASITESGGSTYYADSVKGRFTISRDNAKNTVYLQMNRLKPEDTAVYYCAVRPTVGYWTVYYWGQGTQVTVSS | high polyreactivity
QVQLVESGGGLVQAGGSLRLRCAASGSIFYGYAMGWYRQAPGKESEFVAAITTTGGSTYYADSVKGRFTISRDNSKYTVYLQMNSLKPEDTAVYYCATSGDRLVWGQVTQVTVSS | low polyreactivity
QVQLQERGGGLVQAGGSLRLSCAASCTIFRFRYMGWHRQAPGKERELVAGINGGTTTYYADSVIGRFTISRDNAKNTLYLQMNSLKPDDTAVYNCAAVASRLTYYDYWGQGTQVTVSS | low polyreactivity
